Source: article PMC4678846

Substrate: CC(C)(C)OC(=O)NCCCC[C@H](N)C(=O)O
Experiment: purified protein
Conditions: wild-type tRNA^Pyl, 10 mM ATP, 10 mM MgCl2, pH 7.2, 37 °C, apparent, amino acid not given, BocK inferred

B1: MbPylRS (Methanosarcina barkeri str. Fusaro) (protein)
chain: MDKKPLDVLISATGLWMSRTGTLHKIKHYEVSRSKIYIEMACGDHLVVNNSRSCRTARAFRHHKYRKTCKRCRVSDEDINNFLTRSTEGKTSVKVKVVSAPKVKKAMPKSVSRAPKPLENPVSAKASTDTSRSVPSPAKSTPNSPVPTSAPAPSLTRSQLDRVEALLSPEDKISLNIAKPFRELESELVTRRKNDFQRLYTNDREDYLGKLERDITKFFVDRDFLEIKSPILIPAEYVERMGINNDTELSKQIFRVDKNLCLRPMLAPTLYNYLRKLDRILPDPIKIFEVGPCYRKESDGKEHLEEFTMVNFCQMGSGCTRENLESLIKEFLDYLEIDFEIVGDSCMVYGDTLDIMHGDLELSSAVVGPVPLDREWGIDKPWIGAGFGLERLLKVMHGFKNIKRASRSESYYNGISTNL
B1 gave a Km of 1030 ± 50 µM.
